Reference: IntAct's records for PubMed 21346153

B1: Peroxiredoxin-6 (Rattus norvegicus (Rat)), O35244 (parent)
chain: MPGGLLLGDEAPNFEANTTIGHIRFHDFLGDSWGILFSHPRDFTPVCTTELGRAAKLAPEFAKRNVKLIALSIDSVEDHFAWSKDINAYNGAAPTEKLPFPIIDDKDRDLAILLGMLDPAEKDEKGMPVTARVVFIFGPDKKLKLSILYPATTGRNFDEILRVVDSLQLTASNPVATPVDWKKGESVMVLPTLPEEEAKQLFPKGVFTKELPSGKKYLRYTPQP

Variants of: B1
Conditions: with 1433e_human YWHAE

Row | Variant | effect of a mutation on the interaction
1 | S32A | decreasing interaction strength

Variants of: B1
Conditions: with 1433e_mouse Ywhae

Row | Variant | effect of a mutation on the interaction
2 | S32A | decreasing interaction strength
